Results on one molecule are retold here after patent US20250074973A1 (ANNEXON, published 2025).

The experiment concerns the target T1, human C1q (complement factor C1q, chains A, B and C) (Homo sapiens, UniProt P02745 23-245; P02746 28-253; P02747 29-245).
T1 construct: Endogenous C1q in serum and CSF of the treated human subjects
As to the kind of experiment: in vivo target engagement (PK/PD) in serum and CSF of dosed HD patients.

T1 sequence (P02745 23-245 limits assumed, chain 1 of 3): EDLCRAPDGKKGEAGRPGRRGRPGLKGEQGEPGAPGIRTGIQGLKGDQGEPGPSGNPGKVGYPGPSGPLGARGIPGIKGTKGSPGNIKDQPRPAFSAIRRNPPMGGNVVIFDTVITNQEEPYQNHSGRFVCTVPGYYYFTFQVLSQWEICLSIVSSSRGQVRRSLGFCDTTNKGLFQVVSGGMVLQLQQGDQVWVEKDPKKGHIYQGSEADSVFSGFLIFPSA
T1 sequence (P02746 28-253 limits assumed, chain 2 of 3): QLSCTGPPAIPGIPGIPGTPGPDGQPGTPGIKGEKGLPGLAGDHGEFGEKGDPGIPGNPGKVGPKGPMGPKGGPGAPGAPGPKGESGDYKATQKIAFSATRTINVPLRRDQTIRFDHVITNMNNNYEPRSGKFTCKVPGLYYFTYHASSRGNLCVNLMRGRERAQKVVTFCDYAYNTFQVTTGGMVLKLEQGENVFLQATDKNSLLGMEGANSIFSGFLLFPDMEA
T1 sequence (P02747 29-245 limits assumed, chain 3 of 3): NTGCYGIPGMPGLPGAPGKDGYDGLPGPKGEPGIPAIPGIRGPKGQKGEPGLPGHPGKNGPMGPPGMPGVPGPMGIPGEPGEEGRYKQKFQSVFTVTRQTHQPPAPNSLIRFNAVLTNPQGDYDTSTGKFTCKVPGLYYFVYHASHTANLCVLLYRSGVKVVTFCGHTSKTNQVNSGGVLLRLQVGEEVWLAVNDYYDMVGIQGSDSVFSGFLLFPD

B1: full-length C1q antibody (heavy chain SEQ ID NO: 14; light chain SEQ ID NO: 40) (antibody, human IgG4 S228P, kappa)
heavy: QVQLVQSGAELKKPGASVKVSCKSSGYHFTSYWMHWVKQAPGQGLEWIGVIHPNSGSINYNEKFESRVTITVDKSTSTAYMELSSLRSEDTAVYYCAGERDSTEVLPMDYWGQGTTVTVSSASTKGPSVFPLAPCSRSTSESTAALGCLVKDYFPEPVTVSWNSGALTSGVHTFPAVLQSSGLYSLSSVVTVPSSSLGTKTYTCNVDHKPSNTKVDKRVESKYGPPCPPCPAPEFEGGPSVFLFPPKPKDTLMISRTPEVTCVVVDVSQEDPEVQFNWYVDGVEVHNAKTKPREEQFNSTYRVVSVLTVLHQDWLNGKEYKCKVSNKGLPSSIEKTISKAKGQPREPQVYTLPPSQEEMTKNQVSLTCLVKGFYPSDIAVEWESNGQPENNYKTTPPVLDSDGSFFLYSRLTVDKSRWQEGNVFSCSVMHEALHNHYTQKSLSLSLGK
light: DVQITQSPSSLSASLGERATINCRASKSINKYLAWYQQKPGKAPKLLIYSGSTLQSGIPARFSGSGSGTDFTLTISSLEPEDFAMYYCQQHNEYPLTFGQGTKLEIKRTVAAPSVFIFPPSDEQLKSGTASVVCLLNNFYPREAKVQWKVDNALQSGNSQESVTEQDSKDSTYSLSSTLTLSKADYEKHKVYACEVTHQGLSSPVTKSFNRGEC
notes: also called full-length anti-C1q antibody; anti-C1q antibody
For the molecule B1, the binding result is reported as “binds”.
